# Measured values from the DeepSol protein solubility set.
# Test: soluble on expression in E. coli; label from the status in PepcDB or PDB records
row,Sequence,soluble on expression in E. coli
1,MSLNIHPMWNTYPTLSKELTTTLRLMEQAVQIDNQEIQAAVHDMIHSGGKLLRPAYQLLFSYFGEQRDPKKATALAASIELLHTATLVHDDIVDEADTRRGLPTLRSRFGNSTAVYTGDYLFVCCFKLLSDYSSSLKSIQLNSRSMEKVLTGELGQMDNRYNFEVTIDQYLKNISGKTAELFALSCFVGAYESGTSQRFAKRCGEIGENIGLAFQIIDDILDYTQTADAIGKPVLEDVRQGVYSLPLIYALEANREVLLPLLMKKEALTDEETQEIYRLVHELGGVEKAQELATHYTEKALKEISKLPETKAQAKEQLYEITQTILTREGHHHHHH,soluble
2,MMFGRFTQRAQKVLALSQEEAMRLNHSNLGTEHILLGLVREGEGIAAKALYELGISSEKVQQEVEGLIGHGEKAVTTIQYTPRAKKVIELSMDEARKLGHTYVGTEHILLGLIREGEGVAARVLSNLGISLNKARQQVLQLLGGGDATGAGRQTNTQATPTLDSLARDLTVIAREDNLDPVIGRSKEIQRVIEVLSRRTKNNPVLIGEPGVGKTAIAEGLAQQIVRNEVPETLRGKRVMTLDMGTVVAGTKYRGEFEDRLKKVMDEIRQAGNVILFIDELHTLIGAGGAEGAIDASNILKPPLARGELQCIGATTLDEYRKYIEKDAALERRFQPIKVDEPTVEESIQILHGLRDRYEAHHRVAITDEALEAAVRLSDRYISDRFLPDKAIDVIDESGSKVRLKSFTTPKNVKEMENNLSDLKKEKDAAVQGQEFEKAASLRDKEQKLKKSLEETKANWQEKQGLDHSEVTEDIVAEVVASWTGIPVAKLAETETNKLLNMEKLLHERVIGQDAAVKAVSLAVRRARAGLKDPKRPIGSFIFLGPTGVGKTELARALAESMFGDEDSMIRIDMSEYMEKFSTARLVGAPPGYVGYEEGGQLTEKVRQKPYSVVLLDEIEKAHPDVFNMLLQVLDDGRLTDSKGRVVDFRNTVIIMTSNIGAQEMKQDKSMGFNVTDPLKDHKAMEHRVLQDLKQAFRPEFINRIDETIVFHSLQEKELKQIVTLLTAQLTKRLAERDIHVKLTEGAKSKIAKDGYDPEYGARPLKRAIQKEVEDMLSEELLRGNIKVGDYVEIGVKDGKLEVRKKDAPKKKTTSKKVKAK,not soluble
3,MSLKTELTLLEQTLTLHRFPKRNNETLQAWDAGDEYLIQHVEQLALPESSHIVIINDHFGTLSCWFSQKHKVSMMSDSYIAHQATQANLQQNQRPPVQLLTTLDPVPNDASVVLLQLPKSNRHLVWILSQLRKALSPNIPIIAVNKAKEIHTSTLNLFEKHLGPTTTSLAWKKHRLVFSSATVNPANEVNPECGWSIEPYAITLTNLPNVYSGESLDLGSRFILEHLPADPTLEDFIDLGCGNGVLSVRLGQLNPQAKITCVDESFMAIASAQKNLHDNLGKRDIHCIANNCLDGFPAHSSSMIVCNPPFHQQQTITDHIAWQMFCDSKHVLKKGGKLWVIGNRHLGYDVKLARLFGKSHVRVIANNSKFVILQAIKSEGHHHHHH,soluble
4,MLPEKSEIVVIGGGIVGVTIAHELAKRGEEVTVIEKRFIGSGSTFRCGTGIRQQFNDEANVRVMKRSVELWKKYSEEYGFSFKQTGYLFLLYDDEEVKTFKRNIEIQNKFGVPTKLITPEEAKEIVPLLDISEVIAASWNPTDGKADPFEATTAFAVKAKEYGAKLLEYTEVKGFLIENNEIKGVKTNKGIIKTGIVVNATNAWANLINAMAGIKTKIPIEPYKHQAVITQPIKRGTINPMVISFKYGHAYLTQTFHGGIIGGIGYEIGPTYDLTPTYEFLREVSYYFTKIIPALKNLLILRTWAGYYAKTPDSNPAIGRIEELNDYYIAAGFSGHGFMMAPAVGEMVAELITKGKTKLPVEWYDPYRFERGELRTAALQMG,soluble
5,MPVTNMAELDAMIARVKKAQEEFATYSQEQVDKIFRAASLAANQARIPLAQQAVEESGMGIVEDKVIKNHFASEFIYNKYKDEQTCGILEEDDNLGTMTIAEPVGIICGIVPTTNPTSTAIFKSLISLKTRNGIIFSPHPRAKNSTNDAAKLVLDAAVAAGAPKDIIGWIDQPSVELSNALMKHDDIALILATGGPGMVKAAYSSGKPAIGVGAGNVPVVIDETADIKRAVASVLMSKTFDNGVVCASEQAVIVVDEVYDEVKERFASHKAHVLSKTDADKVRKVLLIDGALNAKIVGQPATAIAEMAGVKVPADTKVLIGEGLGKVSYDDAFAHEKLSPTLGMFRADNFEDAVAQAVTMVEIGGIGHTSGLYTNQDVNADRIRYFGDKMKTARILINIPTTHGGIGDLYNFNVAPSLTLGCGSWGGNSISENVGPKHLINKKTVAKRAENM,soluble
